Measured values reported in US20220235103A1 (Molecular Partners, published 2022).

What was measured:
Experiment in all cases: cell-based or functional assay
[1] = target: spike protein of live SARS-CoV-2 (2019-nCoV/IDF0372/2020) (SARS-CoV-2, UniProt P0DTC2 14-1273)
[2] = target: T1, SARS-CoV-2 spike protein, wild type (Wuhan) (SARS-CoV-2, UniProt P0DTC2 14-1273)
[3] = target: T2, SARS-CoV-2 spike protein D614G (SARS-CoV-2, UniProt P0DTC2 14-1273)
[4] = target: T3, SARS-CoV-2 spike protein G476S (SARS-CoV-2, UniProt P0DTC2 14-1273)
[5] = target: T4, SARS-CoV-2 spike protein V483A (SARS-CoV-2, UniProt P0DTC2 14-1273)
[6] = target: SARS-CoV-2 spike protein D614G x Q675H (SARS-CoV-2, UniProt P0DTC2 14-1273)
[7] = target: T1, SARS-CoV-2 spike protein, wild type …; remark: listed apart in the source
[8] = target: SARS-CoV-2 spike protein variant B.1.351 (SARS-CoV-2, UniProt P0DTC2 14-1273)
[9] = target: SARS-CoV-2 spike protein N501Y (SARS-CoV-2, UniProt P0DTC2 14-1273)
[10] = target: SARS-CoV-2 spike protein E484K (SARS-CoV-2, UniProt P0DTC2 14-1273)
[11] = target: SARS-CoV-2 spike protein K417E (SARS-CoV-2, UniProt P0DTC2 14-1273)
[12] = target: SARS-CoV-2 spike protein Y453F (SARS-CoV-2, UniProt P0DTC2 14-1273)
[13] = target: T2, SARS-CoV-2 spike protein D614G; remark: listed apart in the source
[14] = target: SARS-CoV-2 spike protein S477N (SARS-CoV-2, UniProt P0DTC2 14-1273)
[15] = target: SARS-CoV-2 spike protein N439K (SARS-CoV-2, UniProt P0DTC2 14-1273)
[16] = target: SARS-CoV-2 spike protein A222V (SARS-CoV-2, UniProt P0DTC2 14-1273)
[17] = target: SARS-CoV-2 spike protein G446V (SARS-CoV-2, UniProt P0DTC2 14-1273)
[18] = target: T3, SARS-CoV-2 spike protein G476S; remark: listed apart in the source
[19] = target: SARS-CoV-2 spike protein T478I (SARS-CoV-2, UniProt P0DTC2 14-1273)
[20] = target: SARS-CoV-2 spike protein P479S (SARS-CoV-2, UniProt P0DTC2 14-1273)
[21] = target: T4, SARS-CoV-2 spike protein V483A; remark: listed apart in the source
[22] = target: SARS-CoV-2 spike protein F486V (SARS-CoV-2, UniProt P0DTC2 14-1273)
[23] = target: SARS-CoV-2 spike protein Q493K (SARS-CoV-2, UniProt P0DTC2 14-1273)
[24] = target: SARS-CoV-2 spike protein F490S (SARS-CoV-2, UniProt P0DTC2 14-1273)
[25] = target: T1, SARS-CoV-2 spike protein, wild type …; remark: listed apart in the source

B1: ALE049 (designed binder)
chain: MRGSHHHHHHGSDLGKKLLEAARAGQDDEVRELLKAGADVNAKDYFSHTPLHLAARNGHLKIVEVLLKAGADVNAKDFAGKTPLHLAANEGHLEIVEVLLKAGADVNAQDIFGKTPADIAADAGHEDIAEVLQKAAGSPTPTPTTPTPTPTTPTPTPTGSDLGKKLLEAARAGQDDEVRELLKAGADVNAKDYFSHTPLHLAARNGHLKIVEVLLKAGADVNAKDFAGKTPLHLAANEGHLEIVEVLLKAGADVNAQDIFGKTPADIAADAGHEDIAEVLQKAAGSPTPTPTTPTPTPTTPTPTPTGSDLGKKLLQAARAGQLDEVRELLKAGADVNAKDREGITPLHLAAQHGHLEIVEVLLKAGADVNAKDVWGRTPLHLAAWQGHLEIVEVLLKAGADVNAKDLAGATPLHVAALYGHLEIVEVLLKAGADVNAQDKSGKTPADLAARAGHQDIAEVLQKAAGSPTPTPTTPTPTPTTPTPTPTGSDLGKKLLQAARAGQLDEVRELLKAGADVNAKDREGKTPLHVAAQEGHLEIVEVLLKAGADVNAKDVWGRTPLHLAAWIGHLEIVEVLLKAGADVNAKDVSGATPLHAAALHGHLEIVEVLLNAGADVNAQDKSGKTPADLAARAGHQDIAEVLQKAAGSPTPTPTTPTPTPTTPTPTPTGSDLGKKLLQAARAGQLDEVRELLKAGADVNAKDQEGITPLHVAAHQGHLEIVEVLLKAGADVNAKDVWGRTPLHLAAWRGHLEIVEVLLKAGADVNAKDHAGATPLHAAALSGHLEIVEVLLKAGADVNAQDKSGKTPADLAARAGHQDIAEVLQKAA
[1]
  IC50 LV (live virus cytopathic effect assay): 0.025 nM
[2]
  Potency of inhibition of SARS-CoV-2 spike protein variants (IC50): 0.0165 nM
[3]
  Potency of inhibition of SARS-CoV-2 spike protein variants (IC50): 0.0118 nM
[4]
  Potency of inhibition of SARS-CoV-2 spike protein variants (IC50): 0.0271 nM
[5]
  Potency of inhibition of SARS-CoV-2 spike protein variants (IC50): 0.0275 nM
[6]
  Potency of inhibition of SARS-CoV-2 spike protein variants (IC50): 0.0121 nM
[7]
  VSV Pseudotype Neutralization Assay IC50: 1 ng/mL
[8]
  VSV Pseudotype Neutralization Assay IC50: 3 ng/mL
[9]
  VSV Pseudotype Neutralization Assay IC50: 0.5 ng/mL
[10]
  VSV Pseudotype Neutralization Assay IC50: 2.7 ng/mL
[11]
  VSV Pseudotype Neutralization Assay IC50: 0.5 ng/mL
[12]
  VSV Pseudotype Neutralization Assay IC50: 3.2 ng/mL
[13]
  VSV Pseudotype Neutralization Assay IC50: 2.4 ng/mL
[14]
  VSV Pseudotype Neutralization Assay IC50: 1.9 ng/mL
[15]
  VSV Pseudotype Neutralization Assay IC50: 1.3 ng/mL
[16]
  VSV Pseudotype Neutralization Assay IC50: 2.2 ng/mL
[17]
  VSV Pseudotype Neutralization Assay IC50: 1.7 ng/mL
[18]
  VSV Pseudotype Neutralization Assay IC50: 1.5 ng/mL
[19]
  VSV Pseudotype Neutralization Assay IC50: 2.7 ng/mL
[20]
  VSV Pseudotype Neutralization Assay IC50: 2.1 ng/mL
[21]
  VSV Pseudotype Neutralization Assay IC50: 2.3 ng/mL
[22]
  VSV Pseudotype Neutralization Assay IC50: > 100 ng/mL
[23]
  VSV Pseudotype Neutralization Assay IC50: 7.9 ng/mL
[24]
  VSV Pseudotype Neutralization Assay IC50: 3.8 ng/mL
[25]
  IC50 (read off the curve), SARS-CoV-2 VSV pseudotype virus, no competitor: ~0.1 nM

B2: ALE058 (designed binder)
chain: MRGSHHHHHHGSDLGKKLLEAARAGQDDEVRELLKAGADVNAKDYFSHTPLHLAARNGHLKIVEVLLKAGADVNAKDFAGKTPLHLAANEGHLEIVEVLLKAGADVNAQDIFGKTPADIAADAGHEDIAEVLQKAAGSPTPTPTTPTPTPTTPTPTPTGSDLGKKLLEAARAGQDDEVRELLKAGADVNAKDYFSHTPLHLAARNGHLKIVEVLLKAGADVNAKDFAGKTPLHLAANEGHLEIVEVLLKAGADVNAQDIFGKTPADIAADAGHEDIAEVLQKAAGSPTPTPTTPTPTPTTPTPTPTGSDLGKKLLQAARAGQLDEVRELLKAGADVNAKDQEGITPLHVAAHQGHLEIVEVLLKAGADVNAKDVWGRTPLHLAAWRGHLEIVEVLLKAGADVNAKDHAGATPLHAAALSGHLEIVEVLLKAGADVNAQDKSGKTPADLAARAGHQDIAEVLQKAAGSPTPTPTTPTPTPTTPTPTPTGSDLGHKLLLAAQAGQDDEVRILLAAGADVNAKDVFGQTPLHVAAVAGHLEIVEVLLKAGADVNAKDSIGYTPLHHAARVGHLEIVEVLLKAGADVNAQDWIGITPADLAAFEGHEDIAEVLQKAAGSPTPTPTTPTPTPTTPTPTPTGSDLGQKLLHAAQYGQDDEVRILLAAGADVNAKDKQGNTPLHIAAFHGHLEIVEVLLKAGADVNAKDQWGLTPLHLAAAWGHLEIVEVLLKAGADVNAQDNYGQTPADLAAESGHEDIAEVLQKAA
[1]
  IC50 LV (live virus cytopathic effect assay): 0.1 nM
[2]
  Potency of inhibition of SARS-CoV-2 spike protein variants (IC50): 0.00548 nM
[3]
  Potency of inhibition of SARS-CoV-2 spike protein variants (IC50): 0.00464 nM
[4]
  Potency of inhibition of SARS-CoV-2 spike protein variants (IC50): 0.0145 nM
[5]
  Potency of inhibition of SARS-CoV-2 spike protein variants (IC50): 0.0324 nM
[6]
  Potency of inhibition of SARS-CoV-2 spike protein variants (IC50): 0.0224 nM
[25]
  IC50 (read off the curve), SARS-CoV-2 VSV pseudotype virus, no competitor: ~0.1 nM
